Experimental data as given in the supplement of paper PMC10065799, “High-throughput profiling of sequence recognition by tyrosine kinases and SH2 domains using bacterial peptide display” (eLife, 2023).

Molecular target: FGFR3 (UniProt P22607)
Assay: phosphorylation enrichment, bacterial display (enrichment ratio); higher = better substrate or ligand; peptides without Tyr show the background
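Note: 11-residue human phosphosite peptides and single-mutation variants displayed on the E. coli surface, counted by deep sequencing, each peptide's frequency after selection divided by its frequency in the unselected input library; frequency after pTyr selection over input frequency; kinase dosed for 20-30% of maximal phosphorylation in three min.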

Sequence of FGFR3 (P22607 whole entry, looked up): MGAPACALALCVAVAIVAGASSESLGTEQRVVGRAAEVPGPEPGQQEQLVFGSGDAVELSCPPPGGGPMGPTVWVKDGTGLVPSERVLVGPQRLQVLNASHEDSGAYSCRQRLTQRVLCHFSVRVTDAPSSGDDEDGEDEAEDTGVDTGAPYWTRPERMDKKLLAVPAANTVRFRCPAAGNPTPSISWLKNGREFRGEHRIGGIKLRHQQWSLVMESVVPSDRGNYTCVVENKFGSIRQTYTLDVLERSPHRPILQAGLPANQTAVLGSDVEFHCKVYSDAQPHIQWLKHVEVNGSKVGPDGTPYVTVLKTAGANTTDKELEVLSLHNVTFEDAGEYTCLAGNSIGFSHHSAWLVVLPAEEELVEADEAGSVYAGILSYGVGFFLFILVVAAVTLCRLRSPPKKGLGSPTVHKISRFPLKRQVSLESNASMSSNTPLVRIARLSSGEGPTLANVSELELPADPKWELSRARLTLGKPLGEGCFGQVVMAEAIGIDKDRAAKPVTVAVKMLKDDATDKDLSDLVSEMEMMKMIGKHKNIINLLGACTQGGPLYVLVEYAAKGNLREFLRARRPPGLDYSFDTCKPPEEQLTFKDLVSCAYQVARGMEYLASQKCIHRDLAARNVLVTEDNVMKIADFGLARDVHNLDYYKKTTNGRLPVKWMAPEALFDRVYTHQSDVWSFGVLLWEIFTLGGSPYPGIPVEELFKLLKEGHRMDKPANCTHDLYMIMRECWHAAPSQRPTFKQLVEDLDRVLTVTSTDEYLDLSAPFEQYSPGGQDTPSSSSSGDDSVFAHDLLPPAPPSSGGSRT

Row | Sequence | phosphorylation enrichment
1 | RQNNSYTCFTA [SLC20A2_Y386_R382Q_YF] | 0.904
2 | SARHHYESLQT [BIN1_Y157] | 0.396
3 | EVGHVYLFLQP [ITGA2B_Y360_R358H] | 0.893
4 | SSRKEYFIGGG [GYPC_Y126] | 0.478
5 | RKKEEYKMALY [F8_Y1990] | 0.33
6 | VHLYAYDWISI [BEST1_Y227_G222V] | 4.71
7 | REVPVYIGEDS [SYNM_Y460] | 0.909
8 | HLQQSNLPRGT [TEX45_Y396_Y396N] | 0.644
9 | KEAALYPHLPP [SQSTM1_Y383] | 0.649
10 | KFLENYFDLKK [MMP3_Y41_YF] | 1.75
11 | NARGLYYKLHN [GATA2_Y376_C373R] | 1.02
12 | HSKGIYFVQLE [MGAT4B_Y262_Q257H_YF] | 1.75
13 | WASSSYRETPS [SORBS1_Y79_R74W] | 0.444
14 | NHQYDYTFDWT [CSNK1A1_Y294] | 2.67
15 | PAIERYVVVCK [RHO_Y136_L131P] | 0.851
16 | PFSNPYENSLI [EPOR_Y489_YF] | 1.02
17 | FSNKLYFQLEQ [PDPR_Y109_YF] | 2.7

Row | Sequence | phosphorylation enrichment
18 | KVVNEYVTKGQ [MYH7_Y410_G407V] | 0.489
19 | DPHECYAKVFD [ALB_Y394] | 0.749
20 | MWGSDYVHLSR [MAP3K4_Y582_Q584H] | 1.82
21 | NKEPRYQEEPP [TJP2_Y479_D482E] | 0.685
22 | GYIISYREEEQ | 0.586
23 | EFGFRYELVQF [UGGT2_Y1289_Y1285F_YF] | 0.853
24 | MGGSLYFSFPD [HIKESHI_Y55_V54L_YF] | 5.74
25 | PFQGAYLEINK [MYO1B_Y967] | 0.763
26 | KFACSYTPVKA [FLNB_Y708_T703K_YF] | 0.579
27 | HNQDGYSYLSR [LDLR_Y845_P848L] | 0.658
28 | KRISCYEASFQ [PFKFB3_Y194_YF] | 0.85
29 | KCCCIYEKPRA [PPP1R11_Y64] | 0.814
30 | RAYRRYLLKQK [SCN2A_Y1919] | 0.495
31 | GDFFCYLAEVA [YWHAG_Y133_R132C_YF] | 0.922
32 | ARLEFCENEKK [IRS1_Y47_Y47C_YF] | 0.926
33 | QNTGDYFDLFG [PTPN11_Y62_YF] | 23.3

Tested on: Fer (mouse)
Assay: as above

Row | Sequence | phosphorylation enrichment
34 | RQNNSYTCFTA [SLC20A2_Y386_R382Q_YF] | 0.751
35 | SARHHYESLQT [BIN1_Y157] | 0.499
36 | EVGHVYLFLQP [ITGA2B_Y360_R358H] | 0.618
37 | SSRKEYFIGGG [GYPC_Y126] | 0.431
38 | RKKEEYKMALY [F8_Y1990] | 0.289
39 | VHLYAYDWISI [BEST1_Y227_G222V] | 13
40 | REVPVYIGEDS [SYNM_Y460] | 0.499
41 | HLQQSNLPRGT [TEX45_Y396_Y396N] | 0.279
42 | KEAALYPHLPP [SQSTM1_Y383] | 0.42
43 | KFLENYFDLKK [MMP3_Y41_YF] | 0.467
44 | NARGLYYKLHN [GATA2_Y376_C373R] | 0.496
45 | HSKGIYFVQLE [MGAT4B_Y262_Q257H_YF] | 0.711
46 | WASSSYRETPS [SORBS1_Y79_R74W] | 0.389
47 | NHQYDYTFDWT [CSNK1A1_Y294] | 0.569
48 | PAIERYVVVCK [RHO_Y136_L131P] | 0.473
49 | PFSNPYENSLI [EPOR_Y489_YF] | 2.23
50 | FSNKLYFQLEQ [PDPR_Y109_YF] | 0.661

Row | Sequence | phosphorylation enrichment
51 | KVVNEYVTKGQ [MYH7_Y410_G407V] | 0.393
52 | DPHECYAKVFD [ALB_Y394] | 0.584
53 | MWGSDYVHLSR [MAP3K4_Y582_Q584H] | 0.417
54 | NKEPRYQEEPP [TJP2_Y479_D482E] | 0.43
55 | GYIISYREEEQ | 0.596
56 | EFGFRYELVQF [UGGT2_Y1289_Y1285F_YF] | 0.887
57 | MGGSLYFSFPD [HIKESHI_Y55_V54L_YF] | 0.871
58 | PFQGAYLEINK [MYO1B_Y967] | 0.401
59 | KFACSYTPVKA [FLNB_Y708_T703K_YF] | 0.462
60 | HNQDGYSYLSR [LDLR_Y845_P848L] | 0.522
61 | KRISCYEASFQ [PFKFB3_Y194_YF] | 0.593
62 | KCCCIYEKPRA [PPP1R11_Y64] | 8.2
63 | RAYRRYLLKQK [SCN2A_Y1919] | 0.415
64 | GDFFCYLAEVA [YWHAG_Y133_R132C_YF] | 0.865
65 | ARLEFCENEKK [IRS1_Y47_Y47C_YF] | 0.568
66 | QNTGDYFDLFG [PTPN11_Y62_YF] | 0.753

Molecular target: Fes (UniProt P07332)
Sequence (P07332 whole entry, looked up): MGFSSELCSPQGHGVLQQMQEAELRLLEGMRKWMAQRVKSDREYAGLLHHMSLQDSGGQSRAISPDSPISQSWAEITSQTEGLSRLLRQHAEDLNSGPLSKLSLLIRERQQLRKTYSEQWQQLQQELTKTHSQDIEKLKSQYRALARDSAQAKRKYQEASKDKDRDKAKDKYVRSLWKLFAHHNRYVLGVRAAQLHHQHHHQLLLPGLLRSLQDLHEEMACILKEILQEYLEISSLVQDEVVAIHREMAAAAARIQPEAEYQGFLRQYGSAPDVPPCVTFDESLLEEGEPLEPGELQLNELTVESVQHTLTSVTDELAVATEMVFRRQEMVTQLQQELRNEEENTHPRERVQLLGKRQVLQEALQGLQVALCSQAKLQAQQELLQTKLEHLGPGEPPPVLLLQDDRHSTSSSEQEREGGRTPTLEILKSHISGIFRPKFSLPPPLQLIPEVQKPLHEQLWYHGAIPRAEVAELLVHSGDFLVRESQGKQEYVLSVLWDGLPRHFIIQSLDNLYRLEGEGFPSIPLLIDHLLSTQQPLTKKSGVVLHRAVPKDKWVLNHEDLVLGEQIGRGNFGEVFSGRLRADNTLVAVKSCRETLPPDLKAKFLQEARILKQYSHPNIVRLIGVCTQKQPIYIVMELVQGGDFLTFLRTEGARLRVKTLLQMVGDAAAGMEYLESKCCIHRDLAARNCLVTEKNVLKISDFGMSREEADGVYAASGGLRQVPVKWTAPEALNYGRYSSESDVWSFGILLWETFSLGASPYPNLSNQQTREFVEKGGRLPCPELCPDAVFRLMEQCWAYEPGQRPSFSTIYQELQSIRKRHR
Assay: as above

Row | Sequence | phosphorylation enrichment
67 | RQNNSYTCFTA [SLC20A2_Y386_R382Q_YF] | 0.898
68 | SARHHYESLQT [BIN1_Y157] | 0.564
69 | EVGHVYLFLQP [ITGA2B_Y360_R358H] | 1.42
70 | SSRKEYFIGGG [GYPC_Y126] | 0.673
71 | RKKEEYKMALY [F8_Y1990] | 0.708
72 | VHLYAYDWISI [BEST1_Y227_G222V] | 3.05
73 | REVPVYIGEDS [SYNM_Y460] | 1.36
74 | HLQQSNLPRGT [TEX45_Y396_Y396N] | 0.757
75 | KEAALYPHLPP [SQSTM1_Y383] | 0.796
76 | KFLENYFDLKK [MMP3_Y41_YF] | 1.27
77 | NARGLYYKLHN [GATA2_Y376_C373R] | 0.975
78 | HSKGIYFVQLE [MGAT4B_Y262_Q257H_YF] | 2.53
79 | WASSSYRETPS [SORBS1_Y79_R74W] | 0.57
80 | NHQYDYTFDWT [CSNK1A1_Y294] | 0.991
81 | PAIERYVVVCK [RHO_Y136_L131P] | 1.41
82 | PFSNPYENSLI [EPOR_Y489_YF] | 1.48
83 | FSNKLYFQLEQ [PDPR_Y109_YF] | 1.19

Row | Sequence | phosphorylation enrichment
84 | KVVNEYVTKGQ [MYH7_Y410_G407V] | 0.601
85 | DPHECYAKVFD [ALB_Y394] | 1.14
86 | MWGSDYVHLSR [MAP3K4_Y582_Q584H] | 0.693
87 | NKEPRYQEEPP [TJP2_Y479_D482E] | 1.18
88 | GYIISYREEEQ | 2.14
89 | EFGFRYELVQF [UGGT2_Y1289_Y1285F_YF] | 1.21
90 | MGGSLYFSFPD [HIKESHI_Y55_V54L_YF] | 1.8
91 | PFQGAYLEINK [MYO1B_Y967] | 1.09
92 | KFACSYTPVKA [FLNB_Y708_T703K_YF] | 0.895
93 | HNQDGYSYLSR [LDLR_Y845_P848L] | 0.681
94 | KRISCYEASFQ [PFKFB3_Y194_YF] | 1.11
95 | KCCCIYEKPRA [PPP1R11_Y64] | 1.46
96 | RAYRRYLLKQK [SCN2A_Y1919] | 0.491
97 | GDFFCYLAEVA [YWHAG_Y133_R132C_YF] | 1.52
98 | ARLEFCENEKK [IRS1_Y47_Y47C_YF] | 1.23
99 | QNTGDYFDLFG [PTPN11_Y62_YF] | 1.49

Molecular target: Fyn (UniProt P06241)
Sequence (P06241 whole entry, looked up): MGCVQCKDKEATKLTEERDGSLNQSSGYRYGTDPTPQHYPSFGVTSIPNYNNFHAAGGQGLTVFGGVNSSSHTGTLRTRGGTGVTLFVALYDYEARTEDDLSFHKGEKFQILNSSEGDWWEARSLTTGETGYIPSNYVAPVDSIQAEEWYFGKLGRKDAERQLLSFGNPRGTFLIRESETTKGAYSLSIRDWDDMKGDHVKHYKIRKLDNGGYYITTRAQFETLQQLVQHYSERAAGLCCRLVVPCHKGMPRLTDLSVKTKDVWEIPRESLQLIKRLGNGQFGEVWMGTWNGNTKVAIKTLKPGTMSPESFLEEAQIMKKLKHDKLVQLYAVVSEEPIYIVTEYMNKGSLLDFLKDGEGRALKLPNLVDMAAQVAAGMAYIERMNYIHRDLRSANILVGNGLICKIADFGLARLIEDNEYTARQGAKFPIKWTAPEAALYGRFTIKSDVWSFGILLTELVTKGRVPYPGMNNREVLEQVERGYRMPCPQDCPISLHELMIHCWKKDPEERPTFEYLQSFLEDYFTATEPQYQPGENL
Assay: as above

Row | Sequence | phosphorylation enrichment
100 | RQNNSYTCFTA [SLC20A2_Y386_R382Q_YF] | 0.537
101 | SARHHYESLQT [BIN1_Y157] | 0.36
102 | EVGHVYLFLQP [ITGA2B_Y360_R358H] | 0.472
103 | SSRKEYFIGGG [GYPC_Y126] | 0.603
104 | RKKEEYKMALY [F8_Y1990] | 0.46
105 | VHLYAYDWISI [BEST1_Y227_G222V] | 1.18
106 | REVPVYIGEDS [SYNM_Y460] | 0.402
107 | HLQQSNLPRGT [TEX45_Y396_Y396N] | 0.445
108 | KEAALYPHLPP [SQSTM1_Y383] | 0.391
109 | KFLENYFDLKK [MMP3_Y41_YF] | 0.448
110 | NARGLYYKLHN [GATA2_Y376_C373R] | 0.572
111 | HSKGIYFVQLE [MGAT4B_Y262_Q257H_YF] | 1.03
112 | WASSSYRETPS [SORBS1_Y79_R74W] | 0.402
113 | NHQYDYTFDWT [CSNK1A1_Y294] | 0.66
114 | PAIERYVVVCK [RHO_Y136_L131P] | 0.612
115 | PFSNPYENSLI [EPOR_Y489_YF] | 1.04
116 | FSNKLYFQLEQ [PDPR_Y109_YF] | 0.636

Row | Sequence | phosphorylation enrichment
117 | KVVNEYVTKGQ [MYH7_Y410_G407V] | 0.36
118 | DPHECYAKVFD [ALB_Y394] | 0.488
119 | MWGSDYVHLSR [MAP3K4_Y582_Q584H] | 0.472
120 | NKEPRYQEEPP [TJP2_Y479_D482E] | 0.507
121 | GYIISYREEEQ | 0.546
122 | EFGFRYELVQF [UGGT2_Y1289_Y1285F_YF] | 0.433
123 | MGGSLYFSFPD [HIKESHI_Y55_V54L_YF] | 5.08
124 | PFQGAYLEINK [MYO1B_Y967] | 0.526
125 | KFACSYTPVKA [FLNB_Y708_T703K_YF] | 0.472
126 | HNQDGYSYLSR [LDLR_Y845_P848L] | 0.624
127 | KRISCYEASFQ [PFKFB3_Y194_YF] | 0.452
128 | KCCCIYEKPRA [PPP1R11_Y64] | 1.95
129 | RAYRRYLLKQK [SCN2A_Y1919] | 0.559
130 | GDFFCYLAEVA [YWHAG_Y133_R132C_YF] | 0.702
131 | ARLEFCENEKK [IRS1_Y47_Y47C_YF] | 0.515
132 | QNTGDYFDLFG [PTPN11_Y62_YF] | 1.26
